Fold change of receptor-Gβγ interaction against WT Gαo data for 1 sequence are collected here from publication PMC12682024.

In the assay the target is dopamine 2 receptor (D2R) with SmBiT tag (UniProt P14416). Briefly: split reporter (BiFC, NanoBiT); NanoBiT in cells: SmBiT on D2R, LgBiT on Gβ; stimulation with dopamine; Gαo-free control = 0% interaction, WT Gαo = 100% interaction.
Chain of UniProt P14416 (P14416 whole entry): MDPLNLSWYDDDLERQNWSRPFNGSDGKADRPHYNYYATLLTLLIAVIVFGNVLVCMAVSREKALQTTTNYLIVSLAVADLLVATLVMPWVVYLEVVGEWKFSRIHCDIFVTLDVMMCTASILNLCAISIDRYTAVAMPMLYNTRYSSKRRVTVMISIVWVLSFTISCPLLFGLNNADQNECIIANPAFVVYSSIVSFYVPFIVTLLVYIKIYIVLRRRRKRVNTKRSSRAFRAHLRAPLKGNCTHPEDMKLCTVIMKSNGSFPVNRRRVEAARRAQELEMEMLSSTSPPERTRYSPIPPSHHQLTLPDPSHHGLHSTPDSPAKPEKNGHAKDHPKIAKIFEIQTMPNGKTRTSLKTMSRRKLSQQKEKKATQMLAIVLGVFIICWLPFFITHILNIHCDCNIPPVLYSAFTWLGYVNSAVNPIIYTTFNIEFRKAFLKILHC

In turn, “G protein heterotrimer of N76K Gαo with LgBiT-tagged Gβ and Gγ (from UniProt P09471 1-354; P62873 1-340; P59768 1-71) (complex)” showed a fold change of receptor-Gβγ interaction against WT Gαo of 4 fold.
